These results are taken from US20090105116A1.

The target in experiment [1] is T1, CaCdc42 (R150K), sNBD-labeled and GMPPCP-loaded (Candida albicans). Put plainly: fluorescence cross-titration of sNBD-labeled CaCdc42 (R150K) in the presence of cCla4.
Experiment [2] concerns the target T1, CaCdc42 (R150K), sNBD-labeled and …. Put plainly: fluorescence titration of 1 µM sNBD-labeled, GMPPCP-loaded CaCdc42 (R150K).
Experiment [3] has the same target. Put plainly: fluorescence titration of 1 µM CaCdc42 (R150K) with eCla4-SLAM, no SAP-SH2.
A further experiment concerns the target eCla4-SLAM. Kind of experiment: fluorescence titration of sNBD-CaCdc42 (R150K) with eCla4-SLAM in the presence of SAP-SH2 (competition; fit of the apparent Kd against SAP-SH2 concentration).
The target in experiment [4] is T1, CaCdc42 (R150K), sNBD-labeled and …. Put plainly: fluorescence cross-titration of sNBD-labeled CaCdc42 (R150K) in the presence of 50 µM mCla4.
Experiment [5] has the same target. Kind of experiment: fluorescence titration of 1 µM sNBD-labeled, GMPPCP-loaded CaCdc42 (R150K) with the peptide [panel A].
Experiment [6] has the same target. Kind of experiment: fluorescence cross-titration; cCst20 with mCst20 added, against cCst20 alone.
Experiment [7] has the same target. Kind of experiment: fluorescence cross-titration of sNBD-labeled CaCdc42 (R150K) in the presence of 50 µM mCst20.
The target is the same in experiment [8]. Put plainly: fluorescence titration of 1 µM sNBD-labeled, GMPPCP-loaded CaCdc42 (R150K) with the peptide [panel B].
Experiment [9] has the same target. Put plainly: fluorescence cross-titration; mCst20 with cCst20 added, against mCst20 alone.
Experiment [10] has the same target. Kind of experiment: fluorescence cross-titration of sNBD-labeled CaCdc42 (R150K) in the presence of cCst20.

What is called Kd is the constant that tells how readily two partners part at equilibrium. With GNSGVSGPINFTHKVHVGFDPA (modifications not checked) [mCla4, O14427 227-248], the Kd in experiment [1] came out at 4.1 µM; in experiment [2], 4.2 µM.

B1: eCla4-SLAM (peptide)
peptide: GGNSGFPGPINFTHKVHVGFDRKSLTIYAQVQKNFTGLPDTWKSLLQHSKIT
modifications: not checked
In general, EC50 (read off the curve) refers to the concentration giving half of the maximal effect. As to B1, in [3], the 50% effective concentration (EC50 (read off the curve)) was 0.7 µM. For the same molecule, the dissociation constant (Kd) in experiment [2] stood at 0.127 µM.

B2: SH2 domain from the SAP protein (protein)
chain: GSSHHHHHHSSFNPRGSDAVAVYHGKISRETGEKLLLATGLDGSYLLRDSESVPGVYCLCVLYHGYIYTYRVSQTETGSWSAETAPGVHKRYFRKIKNLISAFQKPDQGIVIPLQYPVEK
With B2, the Ki in the experiment with eCla4-SLAM was 362 µM.
SGNFTGLPDTWKSLLQHSKITN (modifications not checked) [cCla4, O14427 249-270]: the figures for the Kd in experiment [4] and in experiment [2] were 311 µM and 275 µM, respectively.
Consider GGNSGVSGPINFTHKVHVGFDSGSGNFTGLPDTWKSLLQHSKIT (modifications not checked) [eCla4-SG, O14427 227-248; O14427 249-270], for which the Kd in [2] was determined as 0.067 µM.
Still for that read-out and setting: next, EVNIKISTPFNAKHLAHVGIDDNGNFTGLPDTWKSLLQHSKIT (modifications not checked) [mCst20-cCla4]: 2.64 µM.
As for GGNSGVSGPINFTHKVHVGFDPASGSYTGLPIEWERLLSASGIT (modifications not checked) [mCla4-cCst20], the equilibrium dissociation constant (Kd) in [2] amounted to 0.031 µM.
VNIKISTPFNAKHLAHVGIDDNGSYTGLPIEWERLLSASGITKK (modifications not checked) [eCst20, P0CY24 469-512] gave an EC50 (read off the curve) in experiment [5] of 0.5 µM. The molecule also showed a Kd in [2] of 0.046 µM.
Regarding GSYTGLPIEWERLLSASGITKK (modifications not checked) [cCst20, P0CY24 491-512], the fold enhancement in binding upon addition of the cognate peptide in [6] came out at 5.5 fold. Further, the Kd in experiment [2] came out at 1160 µM; in [7], 207 µM.
For the molecule VNIKISTPFNAKHLAHVGIDDN (modifications not checked) [mCst20, P0CY24 469-490], the EC50 (read off the curve) in experiment [8] is 0.9 µM. In [9], the fold enhancement in binding upon addition of the cognate peptide amounted to 5.5 fold. For the same molecule, the dissociation constant Kd in experiment [2] is 0.43 µM; in experiment [10], 0.081 µM.
Take GNSGVSGPINFTHKVHVGFDPASGNFTGLPDTWKSLLQHSKITN (modifications not checked) [eCla4, O14427 227-270]: the EC50 (read off the curve) in [5] turned out to be 0.5 µM. Also, the Kd in [2] was determined as 0.025 µM.
In the case of EVNIKISTPFNAKHLAHVGIDPDNGNFTGLPDTWKSLLQHSKIT (modifications not checked) [mCst20-P-cCla4], the Kd in experiment [2] came to 0.093 µM.
